Results reported in patent US20260258115A1 (MAPP BIOPHARMACEUTICAL, published 2026).

Tests used:
Assay in all cases: BLI, IgG
[1] = target: RSV prefusion F (preF), subtype A (respiratory syncytial virus, subtype A, UniProt P03420 26-513)
[2] = target: RSV prefusion F (preF), subtype B (respiratory syncytial virus, subtype B)
[3] = target: T1, RSV postfusion F (postF), subtype A (respiratory syncytial virus, subtype A, UniProt P03420 26-513)
T1 construct: also called F ΔFP; Postfusion subtype A

| Binder | Kd [1] [nM] | Kd [2] [nM] | Kd [3] [nM] | binding result [3] |
| --- | --- | --- | --- | --- |
| ADI-14427 (antibody, V domains shown, also called Ab 93) VH: QVQLVQSGAEVKKPGSSVKVSCKASGGTFNSYTINWVRQAPGQGLEWMGRIITIPGATNYAQKFQGRVTFTADKSTSTAYMELSSLRSEDTAVYFCAKRGTGYYGMDVWGQGTTVTVSS VL: QSVLIQPRSVSGSPGQSVTISCTGTSSDVGGYNYVSWYQQHPGKAPKLMIYDVSERPSGVPDRFSGSKSGNTASLTISGLQAEDEADYYCCSFVGIYILVFGGGTKLTVL | 0.234 | 10.8 | 3.33 | – |
| ADI-20959 (antibody, V domains shown) VH: EVQLLESGAEVKKPGASVKVSCKTSGYTFSNYGVSWVRQAPGQGLEWLGWISAYNGNTNYAQKLQGRVTMTTDSSTSTAYMEVRSLRSDDTAVYYCARDVAPVAASLFDYWGQGTLVTVSS VL: DIRLTQSPLSLPVTLGQPASISCRSSQSLEFTDGNTYLSWFQQRPGQSPRRLIYKVSNRDSGVPDRFSGSGSGTDFTLKINRVEAEDVGVYYCMQGIHWPPTFGPGTKVEIK | 0.337 | 0.43 | – | no binding |
| ADI-14423 (antibody, V domains shown, also called Ab 89) VH: EVQLVESGGVVIQPGGSLRLSCAASGFNFDDYSMHWVRQAPGKGLEWVSLISWDGGITYYADSVKGRFTISRDNGKKSLYLQMNSLRTEDTALYYCAKDIDIYSDYAGYFDYWGQGTLVTVSS VL: DIRMTQSPSSLSASVGDRVTITCRASQGIRNDLGWYQQKPGKAPKRLIYAASSLQSGVPSRFSGSGSGTEFTLTISSLQPEDFATYYCLQHNSYPFTFGQGTRLEIK | 9.65 | 3.4 | – | no binding |
| ADI-14426 (antibody, V domains shown, also called Ab 92) VH: EVQLVESGGGVVQPGRSLRLSCAASGFTFSSFPMHWVRQAPGKGLEWVAVASYDGRNNYYAGSVKGRFTISRDNSKNTLYLQINSLRAEDTAVYYCAREVVIAAHFDYWGQGTLVTVSS VL: SSELTQEPAVSVALGQTVRITCQGDSLRSFYANWYQQKPGQAPILVIYGKNDRPSGIPDRFSGSNSGNTASLTITGAQAEDEADYYCNSRDSSGNHRVFGGGTKVTVL | 23.8 | 19.2 | 0.396 | – |
| ADI-20961 (antibody, V domains shown) VH: QVQLVESGGGLVKPGGSLRLSCAASGFKFSSYYMHWVRQAPGKGLEWVSSVSGGSTYTSYADSVKGRFTISRDNAKHSLFLQLNSLRAEDTAVYHCVRGDYHPSGTSLNWFDPWGQGTLVTVSS VL: QPGLTQPPSVSGAPGQRVTISCTGSSSNIGAGYDVHWYKQLPGTVPKLLIYANNNRPSGVPDRFSGSESGTSASLAITGLQAEDEADYYCQSYDSSLNAYVFGTGTKVTVL | 0.374 | 0.504 | – | no binding |
| ADI-14577 (antibody, V domains shown) VH: QVQLVQSGAEVKKPGASVKVSCKASGYTFTNYGITWVRQAPGQGLEWMGWISAYNGVRNYAQKLQGRVTMTIDTSRTTAYMELKNLRSDDTAMYYCARGPPVIAADDFQHWGQGTMVTVSS VL: DIQMTQSPLSLPVTLGQPASISCRSSQSLVHSNGDTYLNWFQQRPGRSPRRLIYKVSNRDSGVPDRFSGSGSGTDFTLKISRVEAEDVGVYYCMQGTHWPPDFGQGTRLEIK | 0.439 | 2.19 | – | no binding |
| ADI-20970 (antibody, V domains shown) VH: EVQLLESGGGLVKPGGSLRLSCAVSGFSFSNAWMSWVRQAPGKGLEWVGRIRSKTDGGTTDYAAPVKGRFTISRDDSKNTLYLQMNSLKTEDTAVYYCTTAPRYSTSWYPGYYYYYYMDVWGKGTTVTVSS VL: DIQMTQSPSSLSASVGDRVTITCQASQDINFYLNWYQQKPGKAPKLLIYDASNLETGVPSRFSGSVSGTDFTFTISSLQPEDFATYYCQQYDDLPAFGGGTKVEIK | 1.83 | 2.55 | – | no binding |
| ADI-20969 (antibody, V domains shown) VH: EVQLVESGGGLVKPGGSLRLSCAASGFKFSSYTMNWVRQAPGKGLEWVSSVSASSSYIFYADSVQGRFIISRDNAQNSLYLQMNSLRADDTAVYYCARDQYGPGHYYNPAWFDPWGQGTLVTVSS VL: QPVLTQPPSVSGAPGQRVTISCTGTSSNIGAGYDVHWYKQLPGTAPKVLIYGNTNRPSGIPDRFSGSKSGTSASLAITGLKAEDEADYYCQSYDRSGSKVFGTGTKLTVL | 0.301 | 0.409 | – | no binding |
| ADI-21032 (antibody, V domains shown, also called Ab 280) VH: EVQLVESGGGLVKPGGSLRLSCAVSGFKFSSYTMNWVRQAPGKGLEWVSSVSASSSYIFYADSVQGRFIISRDNAQNSLYLQMNSLRADDTAVYYCTRDQYGPGHYYNPAWFDPWGQGTLVTVSS VL: QPVLTQPPSASGAPGQRVTISCTGSSSNIGAGYDVHWYQQLPGTAPKVLIYGNTNRPSGIPDRFSGSKSGTSASLAIIGLQAEDEADYYCQSYDRNGSKVFGTGTKLTVL | 0.296 | 0.344 | – | no binding |
| ADI-20973 (antibody, V domains shown) VH: EVQLLESGGGLVKPAGSLRLSCAASGFSFSSYYMNWIRQAPGKGLEWVSDISGGSSYTNYADSVKGRFTVSRDNAKNSVYLQMNSLRGEDTAVYYCARGASTAATYTPTFDYWGQGILVTVSS VL: QPVLTQPPSVSGAPGQRVTISCTGSSSNIGAGYDVHWYQQLPGTAPKLLMFGNNNRPSGVPDRFSGSKSGTSASLAITGLRPEDEADYYCQSYDRRLTVVFGGGTKLTVL | 0.308 | 0.417 | – | no binding |
| ADI-14578 (antibody, V domains shown) VH: QVQLVQSGAEVKKPGSSVKVSCKASGGTFNNYAINWVRQAPGQGLEWMGGIIPMFGTANYAQKFQGRVTMTADESTSTAYMELSSLRSEDTAVYYCASSQIFVGGNYYKLEFDNWGQGTLVTVSS VL: QSVLTQPPSVSAAPGQKVTISCSGSNSNIGYNDVSWYQQLPGTAPQLLIYDNNKRTSGIPDRFSGSKFGTSATLGITGLQTGDEADYYCGTWDSSLSTVIFGGGTKLTVL | 3.29 | 4.02 | – | no binding |
| ADI-20964 (antibody, V domains shown) VH: QVQLVQSGAEVKKPGASVKVSCKASGYTFTHYGISWVRQAPGQGLEWMGWISAYNGNTNYAQKLQGRVTMTTDTSTSTAYMEVRSLRYDDTAVYYCARDVPVEAATSPEFWGQGTLVTVSS VL: DIVMTQTPLSLPVTLGQPASISCRSSQSLVYSDGNTYLSWFQQRPGQSPRRLIYKVSNRDSGVPNRFSGSGSGTDFTLKISRVEAEDVGVYYCVQNTHWPAYTFGQGTKVEIK | 0.36 | 2.49 | – | no binding |
| ADI-14422 (antibody, V domains shown, also called Ab 88) VH: QVQLVQSGAEVKKPGSSVKVSCKASGGTFSSYTINWVRQAPGQGLEWMGRIIPILGIANYAQKFQGRVTITADKSTSTAYMELSSLRSEDTAVYYCARRHQDTYGMDVWGQGTTVTVSS VL: QSVLTQPPSVSGAPGQRVTISCTGSSSNIGAGYDVHWYQQLPGTAPKLLIYGNSNRPSGVPDRFSGSKSGTSASLAITGLQAEDEADYYCQSYDSSLSGSVFGGGTKVTVL | 11.4 | 33.9 | 4.76 | – |
| ADI-14600 (antibody, V domains shown) VH: QVQLVQSGGGLVKPGGSLRLSCAASGFSFSDYYMNWIRQAPGKGLEWVSYISSSSSYTNYADSVKGRFTISRDNAKKSLYLQMNSLRAEDTAVYYCASQTYSDYARGGAFDIWGQGTTVTVSS VL: QSVLTQPPSVSGAPGQRVTISCTGSSSNIGAGYDVHWYQQLPGTAPKLLIYGNNNRPSGVPDRFSGSKSGTSASLAITGLQAEDEADYYCQSYDSSLSGSVFGTGTKVTVL | 0.758 | 0.986 | – | no binding |
| ADI-14597 (antibody, V domains shown) VH: EVQLVESGGVVVQPGGSLRLSCAVSGFNFDDYSMHWVRQLPGKGLEWVSLISWDGGITYYADSVKGRFTISRDNSKNSLYLQMNSLRTEDTALYYCAKDGNRYSDNDYYFDYWGQGTLVTVSS VL: not shown | 5.26 | 1.67 | – | no binding |
| ADI-20962 (antibody, V domains shown) VH: QVQLVQSGAEVKKPGASVKVSCKASGYTFSHYGLSWVRQAPGQGLEWMGWISAYNHNTNYAQKFQGRVTITTDTSTSTAYLEMRSLRSDDTAVYYCAREPPSDTAAGTGDYWGQGTLVTVSS VL: DIVMTQSPLSLSVTLGQPASISCRSSQSLVYSDGNTYLTWFQQRPGQSPRRLIYKVSNRDSGVPDRFSGSGSGTDFTLKISRVEAEDVGVYYCMQGTQWPRTFGQGTKVDIK | 0.289 | 0.463 | – | no binding |
| ADI-20971 (antibody, V domains shown) VH: EVQLVESGGGLVKPGESLRLSCAASGFTFSDYSMTWIRQAPGKGLLEWIAYINSQSNYMDYADSVKGRFTISRDNAKNSLYLQMNGLRADDTAVYFCARDRRTFVAATLGWFDPWGQGTLVTVSS VL: ETTLTQSPATLSVSPGERATLSCRASQSVSNNVAWYQQKPGQAPRVLIYAASTRATGIPARFSGSESGTEFTLTISSLQSEDFAVYYCQQYNNWPRTFGQGTKLEIK | 0.333 | 0.544 | – | no binding |
| ADI-14602 (antibody, V domains shown, also called Ab 130) VH: EVQLVESGGGVVQPGGSLRLSCAASGFSFSSCGMHWVRQVSGKGLEWVAFIRYDGSNKFYADSVKGRFTISRDNSKNTLYLQMNSLRVEDTAVYYCAKGGLEDVSTGYSPHYYYGMDVWGQGTTVTVSS VL: QPVLTQPPSVSVSPGQTASITCSGDKLAYKYTCWYQQKPGQSPVLVIFQDSKRPSGIPERFSGSNSGNTATLTISGTQALDEADYYCQAWDSSTVVFGGGTKLTVL | 4.73 | 8.94 | – | no binding |
| ADI-14604 (antibody, V domains shown) VH: EVQLLESGGGLVQPGGSLRLSCSASGFTFNNYVMHWVRQAPGKGLEDASAISSNGVSTNYADSVKGRFTISRDNSKNTLYLQMRSLRAEDTALYYCVRDLIPHDSSAYYGYHGMDVWGQGTTVTVSS VL: QPVLTQPPSASGTPGQSVTISCSGSSSNIGTNVVNWYQQLPGTAPKLLIYSNDLRPSGVPDRFSGSKSGTSASLAISGLQSEDEANYYCAAWDDSLNGVLFGGGTKLTVL | 2.44 | 1.53 | – | no binding |
